Measured values reported in publication doi:10.1101/2024.03.07.583849 (bioRxiv, 2024).
Where “and” joins values, the source holds several entries; their conditions need not be identical. Equal entries are not always repeated.

Target: the molecule itself
Assay: SEC

B1: Chlamydomonas reinhardtii alpha-amylase 2 (AMA2), recombinant full-length enzyme (enzyme, UniProt A0A2K3DGK5 1-706, looked up)
chain: MDRSLLSRTSPRMQLGRPQQLPPPTVPLAQVPRLQRRCVVGSRVCQPVVAVRPGRASAGRGGRLVVSSVDMSNSPLSSMDAGEGLDIMFDNNSDAECTVVTVEGKDKAHLLMSLTGGFSSAGLTVISASITSDDGRVLDVFRVQTADGKKVPEEQFPSVREHILSVTATSSRSSMPAIYGIVAAAEVERLKPLRSQSTQNDVDALELAAAEMTQAVAELVATERDIIRMRASNADARTLQTKEANRTEAAAGLERKMAAMQAVLAARRNLATEPEKPKSPTEKLLETLKPPTPMRAAAGAGSGSGSEILLQAFNWESHRQKLYKQLMGRVKDISDAGFTGVWMPPPSDSVSPQGYLPRDLYSLDSAYGSEAELRELIAAFHQNNIKVIADIVVNHRCANSQGSDGKWNKFGGRLAWDASAICSNNPSFGGRGNPKQGDDYAAAPNIDHSQERIRNDIVQWMKYLRNSIGFDGWRFDFVRGYLGSYCKQYIDETVPAMAFGEYWDSCEYTDGVLNYNQDAHRQRTVNWCDSTGGTSAAFDFTTKGILQEAVGRREYWRLVDSQGRPPGVMGMWPSRAITFIDNHDTGSTLNHWPFPSRNLPEGYAYILTHPGTPCVFYDHFYQEENNLRKIILDLLKVRRRNGLNARSKVVMKKSAADVYAAMIDDKVAVKLGPGDWSPNQSGIKVNGKELKVAASGFQFAVWEGQH
stoichiometry N: 2 and 4
